± gives the half width of the 95% confidence interval.
How the values were obtained:
[1] = folding stability dG unfold (combined trypsin and chymotrypsin); higher = more stable
Outline: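 Designed mini-proteins with no cysteine and under 80 residues were kept only if AlphaFold2 dimer inter-PAE was above 15. In a PA-tagged cDNA display construct, they were digested with trypsin and chymotrypsin and then sequenced. K50 was inferred by Bayesian fitting of counts, and unfolding free energy was derived per protease or combined against a sequence-predicted unfolded-state K50 and a shared folded-state K50.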

[2] = folding stability dG unfold from trypsin proteolysis; higher = more stable
Method: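 Folding stability of de novo designed mini-proteins (<80 aa, no Cys; designed by TrROS, TrMRF, ProteinMPNN and the joint model) was measured by cDNA display proteolysis with trypsin and chymotrypsin. Each protease was used at 11 concentrations in a threefold dilution series plus a no-protease condition. K50 was inferred by Bayesian fitting of sequencing counts, and dG unfold was derived against a sequence-predicted unfolded-state K50 (Tsuboyama et al. method). Sequences shown include variable-length N-terminal GS-type padding (SAGGSAGG...) inside a display construct carrying a PA tag. Rows were kept only if the AF2 dimer inter-PAE was >15, to exclude likely homo-oligomers.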

| Sequence | folding stability dG unfold [1] [kcal/mol] | folding stability dG unfold [2] [kcal/mol] |
| --- | --- | --- |
| SAGGMRIWRVPETGVRAEVGTGGPWLVTITSSTTPVPEVRPVPPEEVEAFLRARFPGPVEEVERRPVPESAG [r5_519_JUSTAS] | -0.783 ± 0.19 | -0.647 ± 0.34 |
| SAGGMTEIEPDSEEKAEAEIEKVVEEEAEKALKSEKKNVTIKVDVKVVDPVTGKSKTYPVEKLVKLPSAGGS [r8_163_JUSTAS] | < -1 | -1.4 ± 0.83 |
| SAGGMTPEELKKVTIEKTVKDPSGNEYLEKSEVKEVEKKDEKYILKIPYTIKDKNGNTISNGTKTIPLSAGG [r13_172_JUSTAS] | < -1 | -0.446 ± 0.5 |
| SAGGMVVTSESREPDGTWTVRTVYRDPAGNLTITSSSTSSATVTRKDSAGTPSTAASTTNTYTSAALSAGGS [r8_270_JUSTAS] | -0.281 ± 0.15 | 0.216 ± 0.067 |
| SAGGNPDWIPIQVPFEDPGDQDAMKKLVEELADIFLDEGIKPIEVEHTNPGHYSVWIPFDGKSIRIHSAGGS [r16_703_TrROS] | -0.888 ± 0.38 | -0.37 ± 0.13 |
| SAGGPKEIIKEIAEKYGITEIMPWDDMKNMPPENPNKIHIWPDPEGHYMVMIRAPNGNKKSIEFPIESAGGS [r16_686_TrROS] | < -1 | -1.02 ± 0.3 |
| SAGGPVVLKIEIEQKTDGKPQERELVIPVKWDPNGQVDADEIKDWVEEALPPGYKIEDIDVVPPGQPFSAGG [r13_504_TrROS] | < -1 | -0.594 ± 0.22 |
| SAGGRGQELTIPNGAPIEDIEELAKKDPDYQVKITEIKMQKPKKDPNGKKRPVPMWMKITLYPAGEKSAGGS [r8_172_TrROS] | < -1 | 0.116 ± 0.27 |
| SAGGRPTMTAEEAAIRLIKELGIPGVKDIKEVVAVVRGGDPDNKPEKGSAILIKAEVPAEEVERLKKESAGG [r13_552_TrMRF] | -0.299 ± 0.11 | 0.221 ± 0.045 |
| SAGGSAETYPVTVVVPLPPGGRELPVEELEDLVRETLANVPDLPDVKVEVTLLEPEGRALVRVEFPSAGGSA [r15_1029_TrMRF] | -0.594 ± 0.16 | 0.0434 ± 0.12 |
| SAGGSAFKELLKEIKEQLQQAPPGEQVEVPIPFPDGYPLRIEINPDENKIEVEYPNGEEEEFDIPPSAGGSA [r15_977_TrROS] | < -1 | 0.133 ± 0.19 |
| SAGGSAGGEYKVYPVKGDLKEFFDEAYKENPGGVRIIDPDTDEVLDFPPDLSLDEFPGTFVVLGSAGGSAGG [r6_857_TrMRF] | < -1 | -0.238 ± 0.13 |
| SAGGSAGGGLSASDTVTFPDGTVVTVAPDATVTITVPAPPDAAGNLTSTVTRTVTVAPGTRVLLSAGGSAGG [r6_90_JUSTAS] | < -1 | -0.907 ± 0.41 |
| SAGGSAGGLVIRNPDTNELIELKPGEELTITVTVEAPPAEEETTTETETRTLTLTVRLPEEAEESAGGSAGG [r6_273_TrROS_Hall] | -0.0133 ± 0.21 | 0.156 ± 0.16 |
| SAGGSAGGMKPTVEVRPVPPSARMVVTITLPGSGKKVTIPVPDAPAPEEPERVIEEALAYVKTSSAGGSAGG [r6_331_JUSTAS] | < -1 | -0.714 ± 0.47 |
| SAGGSAGGMPSDTPFTITKITSVTLNDGRGTTKAVVSYPDGSLVTISSSELERLTKENPNLNLVSAGGSAGG [r6_78_JUSTAS] | -0.0536 ± 0.13 | 0.384 ± 0.062 |
| SAGGSAGGNVKIEVEPGPNGNYLIKIRMPNGTKVEHQFDSPEDAEERAKDFAEEFPPNAQVEIWSAGGSAGG [r6_464_TrROS] | < -1 | -0.00876 ± 0.14 |
| SAGGSAGGSAEVEIKVRPDDPIPPNLPIVLPDGKERDARVEAVLDPEDGTPVFKVYFDPRSDSAGGSAGGSA [r18_476_TrMRF] | 0.0528 ± 0.29 | 0.771 ± 0.048 |
| SAGGSAGGSAGATVLQQGTATPPDGTTVTFNYNITLPSDVLISVDKNPPNPDLVTKIEAGSAGGSAGGSAGG [r11_781_JUSTAS] | -0.197 ± 0.4 | 0.154 ± 0.029 |
| SAGGSAGGSAGEPEKPVLVKVILPGGKPLLIPGKREEAKKAVEELEKKGFPVEKAEVFDESAGGSAGGSAGG [r11_946_TrMRF] | < -1 | -0.485 ± 0.096 |
| SAGGSAGGSAGERIPIKVSIHDPDGRMVPMEIKEIDPDDGTIEVKLPGLPPGIRSIHIMLSAGGSAGGSAGG [r17_260_TrROS] | < -1 | -1.01 ± 0.31 |

— the supplement of paper PMC12764529
